Test results published in publication PMC6960015.

Target: GST-ArhGAP12 ΔNΔP R582A (mouse (NIH 3T3 cDNA library)) (UniProt S4R248)
Assay: BLI

For “Rabbit skeletal muscle LatB-actin (from UniProt P68135 1-377) (natural protein)”, the fold reduction of binding affinity against wild type was 1300 fold.
